According to article PMC8191777:
Substitutions are numbered along the chain they refer to.

Tests used:
[1] = target: T1, TbTRF-lMyb280-382 (Trypanosoma brucei) (UniProt Q4VHG6); assay: EMSA
T1 sequence: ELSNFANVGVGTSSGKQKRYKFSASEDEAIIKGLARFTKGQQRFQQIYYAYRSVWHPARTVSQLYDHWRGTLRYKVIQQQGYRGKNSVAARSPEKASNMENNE

[2] = target: T2, TbTRF-lMyb280-382 R298E R298E (Trypanosoma brucei) (UniProt Q4VHG6); assay: EMSA
T2 sequence: T1 sequence with R19E

Sequence | Kd [1] | Kd [2]
CCCUAACCCUAACCCUAACCCUAACCCUAACCCUAACCCUAACCCUAACCCUAACCCUAACCCUAACCCUAA [ss(CCCUAA)12] | 17200 nM | 36 nM
UUAGGGUUAGGGUUAGGGUUAGGGUUAGGGUUAGGGUUAGGGUUAGGGUUAGGGUUAGGGUUAGGGUUAGGG [ss(UUAGGG)12] | 268 nM | 5 nM
